Measurements as given in patent US20060165706A1 (GENETICS INSTITUTE, published 2006).

Tests used:
[1] = molecular target: T1, human CTLA4-Ig (human, UniProt P16410 38-161); test: competition ELISA on coated human CTLA4-Ig; reference murine CTLA4-26B
T1 construct: also called rhCTLA4IgG1Fc; not shown: immunoglobulin Fc part of the fusion; named IgG1Fc in rhCTLA4IgG1Fc and detected with anti-human Fc

[2] = molecular target: T1, human CTLA4-Ig; test: calculated; method and form of CTLA4 not stated (Example 8, competition assays); humanized, IgG1 isotype
[3] = molecular target: CTLA4 on CTLA4-expressing CHO cells (human, UniProt P16410 36-223); test: FACS competition on CTLA4-expressing CHO cells; competitor 125 ng FITC-labeled murine anti-CTLA4; unlabeled antibody 2000 ng to 100 ng
Sequence of CTLA4 on CTLA4-expressing CHO cells (P16410 36-223 T147A limits assumed): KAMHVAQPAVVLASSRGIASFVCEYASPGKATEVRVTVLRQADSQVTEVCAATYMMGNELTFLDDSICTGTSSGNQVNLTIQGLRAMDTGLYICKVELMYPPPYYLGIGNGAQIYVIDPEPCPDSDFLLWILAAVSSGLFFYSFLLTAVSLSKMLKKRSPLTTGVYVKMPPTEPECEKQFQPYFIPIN
Protocol: The starting concentration of the unlabeled competitor was 2000 ng and was diluted 2-fold serially to 100 ng.

[4] = molecular target: T1, human CTLA4-Ig; test: competition ELISA on plate-coated human CTLA4-Ig (10 ug/ml); cold competitor titrated against biotinylated murine CTLA4-26B; streptavidin-peroxidase, ABTS, O.D. 415 nm
Protocol: Plates were coated with human CTLA4-Ig (10 ug/ml) overnight, washed the next day and blocked with Superblock (Pierce) for 15 min at room temperature. Plates were washed three times with 1×PBS/0.1% Tween 20 and three times with 1×PBS.
100 ul of antibody mixtures was transferred to human CTLA4-Ig coated ELISA plate and rocked for 2 hours at room temperature. Plates were washed as described above and a secondary reagent (streptavidin peroxidase conjugate at 1:1000 dilution) in PBT buffer (1×PBS, 1% BSA, 0.1% Tween 20 was added. Plates were incubated for 1 hr at RT with shaking. Plates were washed as described above and developed for 10 minutes at room temperature with ABTS+H2O2 (100 ul/well) and the reaction was stopped with 2% oxalic acid (100 ul/well).

[5] = molecular target: T1, human CTLA4-Ig; test: calculated; method and form of CTLA4 not stated (Example 8, competition assays); humanized, IgG2m3 isotype
[6] = molecular target: T1, human CTLA4-Ig; test: calculated; method and form of CTLA4 not stated (Example 8, competition assays); humanized, IgG4 isotype
[7] = molecular target: T1, human CTLA4-Ig; test: calculated; method and form of CTLA4 not stated (Example 8, competition assays); murine antibody
[8] = molecular target: T2, E46; test: sandwich ELISA: antibody coated at 10 ug/ml, CHO supernatant with CTLA4-Ig mutant, AP-goat anti-human Fc
T2 construct: one of 11 alanine mutants made by site-directed mutagenesis, used as CHO supernatant; also called CTLA4 point mutant E46; CTLA4-Ig E46A; not shown: human Ig Fc portion (with hinge or linker) of the CTLA4-Ig fusion

[9] = molecular target: T1, human CTLA4-Ig; test: ELISA on plate-coated human CTLA4-Ig (10 ug/ml); serial dilutions of antibody, AP-goat anti-mouse, ABTS, OD 405 nm
Protocol: ELISA plates were incubated with 10 ug/ml human CTLA4-Ig overnight. Plates were washed with PBS/1% BSA and incubated with serial dilutions of primary antibody for 2 hrs at room temperature (RT). After washing, saturating concentrations of AP-conjugated goat anti-mouse antibody were added, and incubated for 1 hr at RT. Unbound goat antibodies were washed using PBS/1% BSA. The assay was developed using ABTS.

[10] = molecular target: T1, human CTLA4-Ig; test: inhibition ELISA on plate-coated human CTLA4-Ig (10 ug/ml); antibody titrated, then biotin-CD86-Ig at 0.66 ug/ml as the blocked ligand; neutravidin-AP, ABTS
Protocol: ELISA were performed as described above with modifications. […] After washing, saturating concentrations of neutravidin-AP were added, and incubated for 1 hr at RT. Unbound neutravidin-AP was washed using PBS/1% BSA. The assay was developed using ABTS.

[11] = molecular target: T3, T67; test: sandwich ELISA: antibody coated at 10 ug/ml, CHO supernatant with about 0.5 ug/ml CTLA4-Ig mutant, AP-goat anti-human Fc; blanks on the sheet: Mock 0.174, DME 0.183
T3 construct: one of 11 alanine mutants made by site-directed mutagenesis, used as CHO supernatant; also called CTLA4 point mutant T67; CTLA4-Ig T67A; not shown: human Ig Fc portion (with hinge or linker) of the CTLA4-Ig fusion

[12] = molecular target: T2, E46; test: as above
Protocol: Mutant proteins were transiently expressed on CHO cells and supernatants harvested at 48 hrs. Supernatants containing CTLA4 mutant molecules were quantitated and standardized by ELISA. […] After incubation for 2 hrs at RT, plates were washed and incubated for 1 hr with AP-conjugated goat anti-human Fc specific IgG. The assay was developed as described above.

[13] = molecular target: T4, D62; test: as above
T4 construct: one of 11 alanine mutants made by site-directed mutagenesis, used as CHO supernatant; also called CTLA4 point mutant D62; CTLA4-Ig D62A; not shown: human Ig Fc portion (with hinge or linker) of the CTLA4-Ig fusion

[14] = molecular target: T5, Q82; test: as above
T5 construct: one of 11 alanine mutants made by site-directed mutagenesis, used as CHO supernatant; also called CTLA4 point mutant Q82; CTLA4-Ig Q82A; not shown: human Ig Fc portion (with hinge or linker) of the CTLA4-Ig fusion

[15] = molecular target: T6, R85; test: as above
T6 construct: one of 11 alanine mutants made by site-directed mutagenesis, used as CHO supernatant; also called CTLA4 point mutant R85; CTLA4-Ig R85A; not shown: human Ig Fc portion (with hinge or linker) of the CTLA4-Ig fusion

[16] = molecular target: T7, D63; test: as above
T7 construct: one of 11 alanine mutants made by site-directed mutagenesis, used as CHO supernatant; also called CTLA4 point mutant D63; CTLA4-Ig D63A; not shown: human Ig Fc portion (with hinge or linker) of the CTLA4-Ig fusion

[17] = molecular target: T8, R38; test: as above
T8 construct: one of 11 alanine mutants made by site-directed mutagenesis, used as CHO supernatant; also called CTLA4 point mutant R38; CTLA4-Ig R38A; not shown: human Ig Fc portion (with hinge or linker) of the CTLA4-Ig fusion

[18] = molecular target: T9, S64; test: as above
T9 construct: one of 11 alanine mutants made by site-directed mutagenesis, used as CHO supernatant; also called CTLA4 point mutant S64; CTLA4-Ig S64A; not shown: human Ig Fc portion (with hinge or linker) of the CTLA4-Ig fusion

[19] = molecular target: T10, I65; test: as above
T10 construct: one of 11 alanine mutants made by site-directed mutagenesis, used as CHO supernatant; also called CTLA4 point mutant I65; CTLA4-Ig I65A; not shown: the human Ig (Fc) part of the CTLA4-Ig fusion and its junction

[20] = molecular target: T11, L61; test: as above
T11 construct: one of 11 alanine mutants made by site-directed mutagenesis, used as CHO supernatant; also called CTLA4 point mutant L61; CTLA4-Ig L61A; not shown: the human Ig (Fc) part of the CTLA4-Ig fusion and its junction

[21] = molecular target: T12, T45; test: as above
T12 construct: one of 11 alanine mutants made by site-directed mutagenesis, used as CHO supernatant; also called CTLA4 point mutant T45; CTLA4-Ig T45A; not shown: the human Ig (Fc) part of the CTLA4-Ig fusion and its junction

T1 sequence (P16410 other isoform, or with tags, fused parts or gaps limits assumed): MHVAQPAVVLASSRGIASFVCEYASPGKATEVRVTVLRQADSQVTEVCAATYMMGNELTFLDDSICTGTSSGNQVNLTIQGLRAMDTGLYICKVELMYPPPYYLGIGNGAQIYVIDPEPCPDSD

B1: humanized anti-CTLA4 antibody 26, IgG1 isotype (antibody, V domains shown)
VH: QVQLQESGPGLVKPSQTLSLTCTVSGFSLTSYGVYWVRQPPGKGLEWLGVIWAGGTTNYNSALMSRLTISKDTSKNQVSLKLSSVTAADTAVYYCARGPPHAMMKRGYAMDYWGQGTLVTVSS
VL: DIQMTQSPSSLSASVGDRVTITCSATSSITYMSWYQQKPGKAPKLLIYDTSNLASGVPSRFSGSGSGTDYTLTISSLQPEDFATYYCQQWSSYPLTFGGGTKVEIK
notes: Human IgG1 heavy constant region (pVgamma1 vector) and human kappa constant region (pVkappa vector); also called hCTLA4-26B IgG1; humanized anti-CTLA4 IgG1
fold difference in affinity against the murine antibody [1]: ≤ 10 fold
Kd [2]: ~2 nM
fold difference in binding affinity against the murine antibody [3]: ≤ 3 fold
IC50 (read off the curve) [4]: ~3 µg/mL

B2: humanized anti-CTLA4 antibody 26, IgG2m3 isotype (antibody, V domains shown)
VH: QVQLQESGPGLVKPSQTLSLTCTVSGFSLTSYGVYWVRQPPGKGLEWLGVIWAGGTTNYNSALMSRLTISKDTSKNQVSLKLSSVTAADTAVYYCARGPPHAMMKRGYAMDYWGQGTLVTVSS
VL: DIQMTQSPSSLSASVGDRVTITCSATSSITYMSWYQQKPGKAPKLLIYDTSNLASGVPSRFSGSGSGTDYTLTISSLQPEDFATYYCQQWSSYPLTFGGGTKVEIK
notes: Human IgG2m3 (mutated IgG2) heavy constant region (pVgamma2m3 vector) and human kappa constant region; also called hCTLA4-26B IgG2m3; IgG2 m3 (2 mutated 3)
fold difference in affinity against the murine antibody [1]: ≤ 10 fold
Kd [5]: ~1.2 nM
IC50 (read off the curve) [4]: ~3 µg/mL

B3: humanized anti-CTLA4 antibody 26, IgG4 isotype (antibody, V domains shown)
VH: QVQLQESGPGLVKPSQTLSLTCTVSGFSLTSYGVYWVRQPPGKGLEWLGVIWAGGTTNYNSALMSRLTISKDTSKNQVSLKLSSVTAADTAVYYCARGPPHAMMKRGYAMDYWGQGTLVTVSS
VL: DIQMTQSPSSLSASVGDRVTITCSATSSITYMSWYQQKPGKAPKLLIYDTSNLASGVPSRFSGSGSGTDYTLTISSLQPEDFATYYCQQWSSYPLTFGGGTKVEIK
notes: Human IgG4 heavy constant region (pVgamma4 vector) and human kappa constant region; also called hCTLA4-26B IgG4; PVkLC+PVg4HC
fold difference in affinity against the murine antibody [1]: ≤ 10 fold
Kd [6]: ~1.1 nM
IC50 (read off the curve) [4]: ~3 µg/mL

B4: murine anti-human CTLA4 monoclonal antibody number 26 (antibody, V domains shown)
VH: QVQLKESGPGLVAPSQSLSITCTVSGFSLTSYGVYWVRQPPGKGLEWLGVIWAGGTTNYNSALMSRLSISKDNSKSQVFLKMSSLQTDDTAMYYCARGPPHAMMKRGYAMDYWGQGTSVIVSS
VL: QNVLTQSPAIMPASPGEKVTMTCSATSSITYMSWYQQKSGSSPRLLIYDTSNLASGVPVRFSGSGSGTSYSLTISRMEAEDAATYYCQQWSSYPLTFGAGTKLELK
notes: Mouse IgG1; also called antibody 26; antibody 26B
Kd [7]: ~1.7 nM
binding result [8]: no binding
EC50 (read off the curve) [9]: ~50 ng/mL
IC50 (read off the curve) [10]: ~600 ng/mL
O.D. 450 nm [11]: 0.944
O.D. 450 nm [12]: 0.16
O.D. 450 nm [13]: 0.974
O.D. 450 nm [14]: 1.07
O.D. 450 nm [15]: 0.976
O.D. 450 nm [16]: 0.979
O.D. 450 nm [17]: 0.636
O.D. 450 nm [18]: 1.1
O.D. 450 nm [19]: 1.17
O.D. 450 nm [20]: 1.19
O.D. 450 nm [21]: 0.948
IC50 (read off the curve) [4]: ~3 µg/mL
